# Columns and labels:
# Test in all cases: cell-based or functional assay
# [1] = biological target: Tau from human Alzheimer's disease brain (isolated Tau PHF fibrils from Alzheimer's disease patients) (human) (UniProt P10636)
# [2] = biological target: human Tau P301L from brain of P301L Tau transgenic mice (human) (UniProt P10636)
# [3] = biological target: Tau from human frontotemporal dementia brain (human) (UniProt P10636)
# [4] = biological target: Tau from human progressive supranuclear palsy brain (human) (UniProt P10636)
# [5] = biological target: human Tau P301S from brain of P301S Tau transgenic mice (human) (UniProt P10636)
# Chain of human Tau P301S from brain of P301S Tau transgenic mice (human) (P10636 other isoform, or with tags, fused parts or gaps P301S P301S P301S P301S): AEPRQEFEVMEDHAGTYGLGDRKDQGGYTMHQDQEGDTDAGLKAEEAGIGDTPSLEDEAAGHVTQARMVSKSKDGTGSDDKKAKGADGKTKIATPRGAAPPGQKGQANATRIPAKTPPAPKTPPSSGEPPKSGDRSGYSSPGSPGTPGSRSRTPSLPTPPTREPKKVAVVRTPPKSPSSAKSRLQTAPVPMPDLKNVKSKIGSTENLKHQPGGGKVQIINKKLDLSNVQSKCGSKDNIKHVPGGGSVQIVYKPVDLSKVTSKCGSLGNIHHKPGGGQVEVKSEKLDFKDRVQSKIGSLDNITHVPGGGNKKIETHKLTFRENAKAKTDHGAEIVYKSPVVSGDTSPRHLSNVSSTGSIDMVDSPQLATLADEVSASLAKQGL
# Chain of IPN002 of WO2014/028777A2 (antibody) (VH): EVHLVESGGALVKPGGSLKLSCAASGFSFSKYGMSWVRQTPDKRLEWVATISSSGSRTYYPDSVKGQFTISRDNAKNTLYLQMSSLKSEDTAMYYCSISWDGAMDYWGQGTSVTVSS
# Chain of IPN002 of WO2014/028777A2 (antibody) (VL): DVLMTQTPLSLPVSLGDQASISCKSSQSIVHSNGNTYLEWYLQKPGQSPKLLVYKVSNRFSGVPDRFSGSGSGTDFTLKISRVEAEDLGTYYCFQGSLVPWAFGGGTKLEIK
# Chain of Tau from human progressive supranuclear palsy brain (human) (P10636 other isoform, or with tags, fused parts or gaps limits assumed): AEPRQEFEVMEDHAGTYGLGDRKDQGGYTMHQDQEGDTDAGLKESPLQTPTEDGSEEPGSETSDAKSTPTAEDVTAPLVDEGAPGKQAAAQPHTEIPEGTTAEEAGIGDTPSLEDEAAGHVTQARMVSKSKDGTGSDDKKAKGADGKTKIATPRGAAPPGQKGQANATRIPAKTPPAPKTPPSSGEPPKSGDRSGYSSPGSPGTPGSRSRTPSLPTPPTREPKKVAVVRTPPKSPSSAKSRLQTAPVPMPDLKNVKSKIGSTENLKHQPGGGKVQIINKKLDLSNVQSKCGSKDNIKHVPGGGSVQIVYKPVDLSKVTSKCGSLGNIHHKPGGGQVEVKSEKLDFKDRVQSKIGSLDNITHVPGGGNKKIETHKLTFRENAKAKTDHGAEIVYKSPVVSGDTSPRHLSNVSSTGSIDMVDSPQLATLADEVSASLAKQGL
# Chain of Tau from human frontotemporal dementia brain (human) (P10636 other isoform, or with tags, fused parts or gaps limits assumed): as above
# Chain of Tau from human Alzheimer's disease brain (isolated Tau PHF fibrils from Alzheimer's disease patients) (human) (P10636 other isoform, or with tags, fused parts or gaps limits assumed): as above
# Chain of human Tau P301L from brain of P301L Tau transgenic mice (human) (P10636 other isoform, or with tags, fused parts or gaps P301L P301L P301L P301L limits assumed): as the sequence (P10636 other isoform, or with tags, fused parts or gaps limits assumed) above, with P300L counted along it
# Chain of HJ8.5 of WO 2014/008404 (antibody) (VH): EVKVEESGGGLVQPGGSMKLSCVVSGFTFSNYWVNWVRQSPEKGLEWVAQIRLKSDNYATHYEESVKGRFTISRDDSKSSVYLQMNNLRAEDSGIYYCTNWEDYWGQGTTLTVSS
# Chain of HJ8.5 of WO 2014/008404 (antibody) (VL): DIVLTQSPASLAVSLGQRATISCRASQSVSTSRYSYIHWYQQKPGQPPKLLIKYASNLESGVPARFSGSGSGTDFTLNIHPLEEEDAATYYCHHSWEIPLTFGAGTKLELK
"Imax (maximal efficacy at 300 nM, cellular Tau aggregation assay) [1]",IC50 (cellular Tau aggregation assay) [2],"Imax (maximal efficacy at 300 nM, cellular Tau aggregation assay) [2]","Imax (maximal efficacy at 300 nM, cellular Tau aggregation assay) [3]",IC50 (cellular Tau aggregation assay) [4],"Imax (maximal efficacy at 300 nM, cellular Tau aggregation assay) [4]","Imax (maximal efficacy at 300 nM, cellular Tau aggregation assay) [5]",IC50 (cellular Tau aggregation assay) [1],IC50 (cellular Tau aggregation assay) [3],IC50 (cellular Tau aggregation assay) [5],Substance
19%,122 nM,73%,50%,207 nM,64%,22%,–,–,–,IPN002 of WO2014/028777A2 (antibody)
46%,–,–,67%,73 nM,79%,43%,–,–,–,HJ8.5 of WO 2014/008404 (antibody)
69%,26 nM,69%,80%,47 nM,55%,56%,32 nM,1 nM,350 nM,PT3 of WO2013/096380A2 (antibody)

# — patent US20210115121A1
